{"source": "patent CN108059681A", "about": "(BEIJING GEGEN BIOTECHNOLOGY CO LTD; YICON BEIJING MEDICAL …, dated 2018)", "target": "T1, EGFR蛋白 (UniProt P00533 25-645, limits assumed)", "T1 construct": "The construct is not described; also called 表皮生长因子受体", "test": "affinity constant; method not stated", "data": [{"binder": "EGFR ScFv (抗EGFR单链抗体) (scFv, Human scFv from a phage library, expressed in E. coli; also called 抗EGFR ScFv) scFv: QVQLQQWGGGVVQPGRSLRLSCAASGFTFSSYAMHWVRQAPGKGLEWVAVISYDGSNKYYADSVKGRFTISRDNSKNTLYLQMDSLRAEDTAVYYCARSGRYFDWLLPFDYGGGGSGGGGSELALTQPPSASVAPGKTARITCGGNNIGSKSVHWYQQKPGQAPVLVIYYDSDRPSGIPERFSGSNSGNTATLTISRVEAGDEADYYCQVWDSSSDQGVFGGGTQLTVL", "values": [{"measurement": "Kd", "value": 284, "unit": "pM"}]}]}
